Data reported in patent US8420311B2, “Method to block the infection by flaviviruses, molecules and uses” (Centro de Ingenieria Genetica y Biotecnologia, priority 2006, dated 2013).

B1: activated A2M: purified human A2M activated by incubation with methylamine (protein)
chain: SVSGKPQYMVLVPSLLHTETTEKGCVLLSYLNETVTVSASLESVRGNRSLFTDLEAENDVLHCVAFAVPKSSSNEEVMFLTVQVKGPTQEFKKRTTVMVKNEDSLVFVQTDKSIYKPGQTVKFRVVSMDENFHPLNELIPLVYIQDPKGNRIAQWQSFQLEGGLKQFSFPLSSEPFQGSYKVVVQKKSGGRTEHPFTVEEFVLPKFEVQVTVPKIITILEEEMNVSVCGLYTYGKPVPGHVTVSICRKYSDASDCHGEDSQAFCEKFSGQLNSHGCFYQQVKTKVFQLKRKEYEMKLHTEAQIQEEGTVVELTGRQSSEITRTITKLSFVKVDSHFRQGIPFFGQVRLVDGKGVPIPNKVIFIRGNEANYYSNATTDEHGLVQFSINTTNVMGTSLTVRVNYKDRSPCYGYQWVSEEHEEAHHTAYLVFSPSKSFVHLEPMSHELPCGHTQTVQAHYILNGGTLLGLKKLSFYYLIMAKGGIVRTGTHGLLVKQEDMKGHFSISIPVKSDIAPVARLLIYAVLPTGDVIGDSAKYDVENCLANKVDLSFSPSQSLPASHAHLRVTAAPQSVCALRAVDQSVLLMKPDAELSASSVYNLLPEKDLTGFPGPLNDQDDEDCINRHNVYINGITYTPVSSTNEKDMYSFLEDMGLKAFTNSKIRKPKMCPQLQQYEMHGPEGLRVGFYESDVMGRGHARLVHVEEPHTETVRKYFPETWIWDLVVVNSAGVAEVGVTVPDTITEWKAGAFCLSEDAGLGISSTASLRAFQPFFVELTMPYSVIRGEAFTLKATVLNYLPKCIRVSVQLEASPAFLAVPVEKEQAPHCICANGRQTVSWAVTPKSLGNVNFTVSAEALESQELCGTEVPSVPEHGRKDTVIKPLLVEPEGLEKETTFNSLLCPSGGEVSEELSLKLPPNVVEESARASVSVLGDILGSAMQNTQNLLQMPYGCGEQNMVLFAPNIYVLDYLNETQQLTPEVKSKAIGYLNTGYQRQLNYKHYDGSYSTFGERYGRNQGNTWLTAFVLKTFAQARAYIFIDEAHITQALIWLSQRQKDNGCFRSSGSLLNNAIKGGVEDEVTLSAYITIALLEIPLTVTHPVVRNALFCLESAWKTAQEGDHGSHVYTKALLAYAFALAGNQDKRKEVLKSLNEEAVKKDNSVHWERPQKPKAPVGHFYEPQAPSAEVEMTSYVLLAYLTAQPAPTSEDLTSATNIVKWITKQQNAQGGFSSTQDTVVALHALSKYGAATFTRTGKAAQVTIQSSGTFSSKFQVDNNNRLLLQQVSLPELPGEYSMKVTGEGCVYLQTSLKYNILPEKEEFPFALGVQTLPQTCDEPKAHTSFQISLSVSYTGSRSASNMAIVDVKMVSGFIPLKPTVKMLERSNHVSRTEVSSNHVLIYLDKVSNQTLSLFFTVLQDVPVRDLKPAIVKVYDYYETDEFAIAEYNAPCSKDLGNA

What was measured:
DV2 [1] = type: cell-based, dengue virus; conditions: protein 25 μg/mL pre-incubated with virus 1 hour at 25° C.
Experimental: (§1) FIG. 21. Chromatographic profile of the purification of the A2MR using affinity chormatography with immobilized A2M (A) and SDS-PAGE analysis of fractions eluted using a 5-15% gradient gel (B). Effect of the pre-incubation of chromatography fractions with DV2 on the infection of Vero cells (C). The plaque reduction neutralization assay was performed as described in FIG. 20. (D) Mice protection assay using the DV-induced encephalitis model.
To this aim, a viral preparation containing 100 infective viral particles was pre-incubated with the different fractions at a protein concentration of 25 μg/mL for 1 hour at 25° C. Next, the virus was added to Vero cell monolayers and infection was allowed to occur for 45 minutes at 37° C. Afterwards virus/protein mixtures were removed, the cells were washed with fresh medium and finally the cells were incubated for 5 days at 37° C. in high density medium.

DV2 [2] = assay: Mice protection assay using the DV-induced encephalitis model; type: in vivo, Balb/C mice; conditions: intra-cranial lethal dosis of DV2 (FIG. 21D)
Experimental: as §1
FIG. 22. Mice protection assay using the DV-induced encephalitis model. PepNR GAGs binding: peptide formed by a sequence fragment of binding to glycosaminoglycans and a non-related sequence fragment.
Groups of 12 adult Balb/C mice (20 g average body weight) were anesthesized, inoculated by intracranial injection with lethal dosis of DV2 and observed daily for 21 days. The mixtures of peptides with the virus were inoculated in the same way. The volume of the sample inoculated was 20 μL.
The mouse model of dengue encephalitis was used to investigate the potential of the peptide HDIII3CL to protect against DV2 infection. A group of 12 mice were inoculated with lethal dosis of DV2 in combination with 15 μg and 1.5 μg of HDIII3CL peptide. As negative control was used a peptide composed by fragment of 14 aminoacids of a sequence with known heparin binding activity followed by 16 aminoacids of a sequence non-related to the envelope protein of DV. […]

[3] = target: T1, DIIIE2J (DIII from protein E of DV2) (Dengue virus type 2, UniProt P07564); assay: Direct binding between DIIIE2J and A2M measured by Biacore; set-up: species or system DV2 strain Jamaica 1409; conditions: restated in example 10
T1 construct: made in house; host or cells: Escherichia coli BL21(DE3)
Experimental: FIG. 6. Direct binding between DIIIE2J and A2M, measured by Biacore. Response curves obtained during and after the injection of (B) Monoclonal antibodies against DV serotype 2 (3H5) and against all FV (4G2); (C) Polyclonal mouse antibody preparations obtained by immunization with DV1 and DV2, including pre-immune sera and (D) A2M dilutions, at concentrations from 0.3 μMol/L to 3 μMol/L. The run was performed on PBS pH 7.4 at 25° C. The different A2M dilutions were loaded at a flow of 5 μL/min for 20 min. The response is represented in resonance units (RU) corrected for unspecific binding using the response from the channel without immobilized protein (less than 5% of the specific signal).
A cm5 chip (Biacore, Sweden) was used for the covalent immobilization of the DIIIE2J and LRP1 proteins. The immobilization was carried out at 25° C., with a flow of 5 μL/min and using HBS (Biacore, Sweden) as running buffer. The surface of the chip was activated by loading 35 μL of 0.2 Mol/L […] (EDC) and 0.05 Mol/L N-hydroxysuccinimide (NHS). Afterwards the proteins, dissolved in 10 mM sodium acetate buffer pH 4.5, were loaded into the system. At the end of the immobilization, 35 μL of 1 M ethanolamine pH 8 were loaded into the system in order to block any remaining free activated groups. The channel to be used as a negative control in each case received only the activating injections with the EDC:NHS solution and the blocking with ethanolamine, employing the same flow and injection volume. The results were analyzed using the BIAevaluation ver. 4.1 software application package (Biacore, Sweden).
In order to estimate the strength of the interaction between DIIIE2J and human A2M, 1600 RU of DIIIE2J were covalently immobilized on a CM5 chip (channel 1, FIG. 6A) (Biacore, Sweden), following the procedure described in the Materials and Methods section. […]

Vero cells = assay: Binding of fluoresceinated proteins to the surface of Vero cells (flow cytometry); type: cell-based, monkey; conditions: fluoresceinated proteins (FIG. 7A)
Experimental: FIG. 7. Inhibition of the binding of DIIIE2J to Vero cells by A2M and RAPR13. The pre-fixed cells were incubated with the fluoresceinated proteins, and the intensity of the fluorescence due to binding of the fluoresceinated ligands to the cells was measured by flow cytometry. Each experimental point represents data gathered from a minimum of 20 000 cells. (A) Binding of A2M and RAPR13 to the cells. The depicted values correspond to the average of the intensity of the fluorescence at each point of the assay minus the fluorescence obtained with untreated cells. (B) and (C) The cells were incubated with fluoresceinated DIIIE2J in the presence or absence of the non-fluoresceinated ligands, using the molar ratio indicated on each case. The % binding was calculated from the ratio of the average intensity of the fluorescence of the cells incubated with the mixture of fluoresceinated DIIIE2J plus the proteins, between that of the cells incubated only with fluoresceinated DIIIE2J.
In the case of cultured Vero cells, they were detached from the surface of the culture flask without using proteases, by incubation with PBS pH 7.4, 5 mM EDTA for 10 min. at 37° C., gently tapping the outside of the flask.
The cells, collected and washed as described above, were incubated in fixing solution (PBS pH 7.4, 2% paraformaldehyde, 0.01% NaN3, 1 mM CaCl2, 1 mM MgCl2 for 30 min at 4° C., and the fixing solution was then eliminated by centrifugation at 350×g for 5 min a 4° C. […] The intensity of the fluorescence was quantified by flow cytometry on a PAS III cytometer (Partec, Germany). The values for each experimental point were calculated from measurements on a minimum of 20 000 cells.
Given that this cell line is derived from monkey kidney cells and that the ligands for the A2MR receptor used in the assays are of human origin, a preliminary and necessary step was the corroboration of the binding of the RAPR13 and A2M MeNH2 proteins to Vero cells. With this aim, these proteins were fluoresceinated, and their binding to the surface of Vero cells was measured using flow cytometry. […]

DV = assay: Inhibition of the infection of Vero cells with DV by pre-incubation of the virus with A2M; type: cell-based, dengue virus; conditions: stated to correspond with the affinity constant for DIIIE2J
Experimental: (§2) FIG. 20. Inhibition of the infection of Vero cells with DV by pre-incubation with A2M. Viral preparations were incubated 1 h at 25° C. (A and C) or the indicated time (B) with the proteins i. e. activated A2M (A2Mact), non-activated A2M (A2M no act) and a non-related protein (NR). The mixtures of the proteins with the virus were added to monolayers of Vero cells and incubated for 1 h at 37° C. The cell monolayers were washed to eliminate non-bound virus. Next, medium MEM supplemented with non-essential amino acids and 1% FBS, 1% CMC was added and the cells were incubated for 5 days at 37° C. in a CO2 incubator. To visualize the viral plaques, Vero cells were stained using Naphtol Blue Black. All experimental points were performed on duplicates.
To obtain further evidences of the interaction of DV with A2M, the two variants of the protein i.e. activated and non-activated were used in assays of inhibition of infection of Vero cells. The viral preparation was incubated with solutions of activated A2M of higher concentrations than the physiological concentrations reached by this variant of the protein. Solutions of equimolar concentration of non-activated A2M and a non-related protein were used as negative controls. […]

serotype 3 of DV = assay: as above; type: cell-based, dengue virus; conditions: FIG. 20C
Experimental: as §2

serotype 1 of DV = assay: as above; type: cell-based, dengue virus; conditions: FIG. 20C
Experimental: as §2

T1 sequence (P07564 568-687, looked up, natural form): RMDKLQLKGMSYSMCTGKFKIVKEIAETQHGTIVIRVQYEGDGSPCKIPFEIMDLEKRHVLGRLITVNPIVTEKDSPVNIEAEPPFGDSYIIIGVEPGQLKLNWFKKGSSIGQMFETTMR

| Molecule | neutralization of the infection of DV2 (DV2 [1]) | protective effect in mice encephalitis model (DV2 [2]) | Kd [3] [nM] | binding to the surface of Vero cells (Vero cells) | IC50 (DV) [nM] | infection of Vero cells by serotype 3 of DV (serotype 3 of DV) | infection of Vero cells by serotype 1 of DV (serotype 1 of DV) |
| --- | --- | --- | --- | --- | --- | --- | --- |
| Purified A2MR: α-chain of the A2MR receptor purified from human plasma by affinity chromatography on immobilized MeNH2_A2M | potent neutralization | significative protective effect |  |  |  |  |  |
| B1 |  |  | 100 | concentration-dependant and saturable binding behavior | ~100 | inhibited infection | inhibited infection |
